In this test the target is T1, integrin alphaEbeta7 (human, UniProt P38570 19-1179; P26010 20-798).
T1 construct: whole, on cells; In the occupancy experiments it stood on T lymphocytes from patients' colonic biopsies; also called αEβ7; αEβ7 receptor
Briefly: flow cytometry on CD45+CD3+CD4- T lymphocytes from a pre-dose colonic biopsy. How it is done: Etrolizumab binds the β7 subunits of the heterodimeric integrins α4β7 and αEβ7. While α4β7 is expressed on leukocyte subsets in both blood and mucosal tissue, αEβ7 is primarily confined to intraepithelial lymphocytes and dendritic cells in mucosal tissue. Therefore, to evaluate the pharmacology and mechanism of action of etrolizumab at the site of action as well as in circulation, colonic tissue was assessed in addition to peripheral blood. Colonic tissue biopsies were collected using standard surgical procedures from 23 consented, study-enrolled patients at pre-dose (screen) and at certain post dose time points (day 43 and day 71). […]
Similar to the flow cytometry assay conducted on peripheral blood cells, occupancy of β7 integrin receptors on colonic tissue T lymphocyte subsets was assessed by staining with fluorescently labeled (PE label) FIB504, while expression of β7 integrin receptors was evaluated using fluorescently labeled 9D8 (PE label). […] Samples were then acquired on a BD FACS Cantoll™ or a BD FACSCalibur™ (BD Biosciences, San Jose, Calif. USA) and analyzed by gating on subsets of αEβ7-expressing and α4β7-expressing CD3+CD45+, αEβ7-expressing and α4β7-expressing CD3+CD4+CD45+, and αEβ7-expressing and α4β7-expressing CD3+CD4-CD45+ T cell subsets. […]
(In general: A flow cytometer gives signals particle by particle.)

T1 sequence (P38570 19-1179, chain 1 of 2): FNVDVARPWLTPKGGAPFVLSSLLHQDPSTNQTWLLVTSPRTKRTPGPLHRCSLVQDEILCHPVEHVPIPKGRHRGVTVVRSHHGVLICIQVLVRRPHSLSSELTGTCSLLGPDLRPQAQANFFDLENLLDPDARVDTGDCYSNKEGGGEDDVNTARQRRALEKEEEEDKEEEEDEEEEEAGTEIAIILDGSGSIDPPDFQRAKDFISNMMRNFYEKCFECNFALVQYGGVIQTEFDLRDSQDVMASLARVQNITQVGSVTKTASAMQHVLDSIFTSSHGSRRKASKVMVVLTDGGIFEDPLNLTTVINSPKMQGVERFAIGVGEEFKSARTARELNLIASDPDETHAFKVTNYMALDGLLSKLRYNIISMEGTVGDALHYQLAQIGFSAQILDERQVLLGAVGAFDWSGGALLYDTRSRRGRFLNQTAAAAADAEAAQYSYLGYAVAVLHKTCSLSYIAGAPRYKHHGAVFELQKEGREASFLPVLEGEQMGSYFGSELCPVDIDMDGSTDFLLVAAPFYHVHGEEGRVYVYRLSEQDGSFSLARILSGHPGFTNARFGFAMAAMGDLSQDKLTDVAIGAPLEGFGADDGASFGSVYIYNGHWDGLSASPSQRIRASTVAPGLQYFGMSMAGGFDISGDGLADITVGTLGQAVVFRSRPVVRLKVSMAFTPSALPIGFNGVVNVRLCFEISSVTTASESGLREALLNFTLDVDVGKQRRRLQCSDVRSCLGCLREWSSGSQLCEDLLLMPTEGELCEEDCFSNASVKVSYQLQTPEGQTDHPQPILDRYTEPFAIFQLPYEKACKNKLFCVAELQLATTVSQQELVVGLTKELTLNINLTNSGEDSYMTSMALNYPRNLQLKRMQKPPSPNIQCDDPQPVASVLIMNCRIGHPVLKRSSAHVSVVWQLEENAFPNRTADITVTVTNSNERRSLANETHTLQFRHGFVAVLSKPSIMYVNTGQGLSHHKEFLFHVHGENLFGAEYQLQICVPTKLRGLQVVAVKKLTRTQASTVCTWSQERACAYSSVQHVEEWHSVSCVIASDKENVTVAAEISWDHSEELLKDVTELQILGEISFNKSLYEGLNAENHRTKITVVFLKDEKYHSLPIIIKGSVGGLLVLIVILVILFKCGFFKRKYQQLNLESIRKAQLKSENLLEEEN
T1 sequence (P26010 20-798, chain 2 of 2): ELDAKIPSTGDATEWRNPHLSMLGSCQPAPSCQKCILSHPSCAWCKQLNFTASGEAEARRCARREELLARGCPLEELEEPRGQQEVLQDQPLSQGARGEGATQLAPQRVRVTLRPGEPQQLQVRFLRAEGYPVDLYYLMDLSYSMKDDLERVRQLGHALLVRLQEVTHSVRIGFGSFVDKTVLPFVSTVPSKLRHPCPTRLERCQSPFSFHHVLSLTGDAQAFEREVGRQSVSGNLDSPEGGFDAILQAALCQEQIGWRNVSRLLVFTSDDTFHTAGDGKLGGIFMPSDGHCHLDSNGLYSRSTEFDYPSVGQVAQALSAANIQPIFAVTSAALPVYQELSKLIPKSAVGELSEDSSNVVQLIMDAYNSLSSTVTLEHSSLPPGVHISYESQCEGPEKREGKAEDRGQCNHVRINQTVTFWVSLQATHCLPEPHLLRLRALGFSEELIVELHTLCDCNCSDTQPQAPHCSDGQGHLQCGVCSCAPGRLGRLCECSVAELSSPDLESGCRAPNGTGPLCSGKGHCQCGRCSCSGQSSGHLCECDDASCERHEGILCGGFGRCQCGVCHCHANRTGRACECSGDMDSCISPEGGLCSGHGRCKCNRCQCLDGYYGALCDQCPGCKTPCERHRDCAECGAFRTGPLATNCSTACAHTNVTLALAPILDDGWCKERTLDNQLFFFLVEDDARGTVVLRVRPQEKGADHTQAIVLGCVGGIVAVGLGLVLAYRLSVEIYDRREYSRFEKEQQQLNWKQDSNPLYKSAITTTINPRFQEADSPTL

B1: FIB504 (rat anti-mouse/human beta7 monoclonal antibody), fluorescently labeled (antibody, V domains shown)
VH: EVQLQESGPGLVKPSQSLSLTCSVTGFFITNNYWGWIRKFPGNKMEWMGYISYSGSTSYNPSLKSRISITRDTSKNQFFLQLNSVTTEDTATYYCAMTGSSGYFDFWGPGTMVTVSS
VL: DVVMTQSPATLSVTPGERISLSCRASESVDTYLHWYQQKPNESPRLLIKYASQSISGIPSRFSGSGSGTDFTLSINGVELEDLSIYYCQQGNSLPNTFGAGTKLELKR
notes: Bought reagent (BD Biosciences), fluorescently labeled (PE label for colonic tissue)
As for B1, the binding result is “binds”.

Values taken from patent US20160209426A1 (Genentech, published 2016).
